Assay: soluble on expression in E. coli; label from the status in PepcDB or PDB records

Sequence	soluble on expression in E. coli
MGSDKIHHHHHHMPRYARKRSSTGIYHVMLKGIDGRDIFLDDEDKEKFIENMLKARDKGNFELYAYCLMDNHLHILIKESEGIGTSIKRIAVGYVQWHNNKYGRIGHLFQNRYLSEPVETESYLLTVVKYIHQNPLKARIVTQLADYKWSSYLQYLAAYKGDNSHIDPLLIMEYFKIQTEFESYMNEPTNSECLDYKQSSKYTDEILKNIIRESFGINDLIDMPNDMRNALIKDIYQSTGVSIRQLARVLGIGKSIVERALK	not soluble
MGSDKIHHHHHHMPSRRGFLAGLLASSVTPTATWADVGAPAYLSAGKDALGLFVMAGLSAAGEVLFRHPLPDRGHAASAHPTRPEAVAFARRPGRFADVIDCRSGAQLARLEPPEGHHFYGHGVFSPEGEVLYTTENDYARGAGVIGVWNAGDYHRIGQFSSGGIGPHEMLLRRDAPGLVVANGGIETHPESGRAKLNIPFMRPNLSYLRLSGEIQHQMELPADLHKNSIRHIAVRSDGAVGFAMQWQGDLGADVPIVGLHQPGSAPRLMAEDDPRLRNLNGYGGSIAFSGDETAIAVTSPRGGVVQVMDCTSGALQAEHALSDVCGLAPLKDGFLVSTGTGIMAQIGTEVTTLTQAPLAWDNHLIALSSAASAPRQP	not soluble
MGSDKIHHHHHHMPTAAAQENIRWEECPPQVDIASAQCGSIDVPMHYSDPSLGDISVGFVKVPAQGEKHGTIFGNSGGPGGDAYSFFGSQSMNWPEAMYQNYDLVAVQPRGMVGSTPVNCDNIAPGYDFLSLLTREGAFVKESCEIGTPGYTSSLTTDNTANDWERVRQALGDDKISIFGLSYGTYLGSVYATRYPQHTDKVVLDSAMAPSLAWNGIMASQEQGYKNSLNDFFTWVAENNDTYGLGTTPLAVYQNWSNKIVAETGTNPTVAPPPAQVGDVPPAFAWAGQAGADMMTATNPTSVQLQGLATQLLNPGSNQSLSPLLNVTRAYIPQPSTWPMLAGAISGQTPIPDVTDTGDDPYVIESINASVNMQRMVMCNENTVAPDPVAMARMAWTSMVTGDVFDIYSVKFSSGQACSGITPTSGRQPTDGSQLAVQPLLLQGTSDPQTPYWTHNELADAMNAHVVTVNGPGHGQSIGGTNQAINDIVVDYLRTGHTDATWVEGNTPTPITAG	not soluble
MGSDKIHHHHHHMPTDHSFQIKPSQAAPLTSQQLYRKCDLKELSTDCQSTAELTPLDDIVGQERAQQAVEFAMGIKEKGYNIYAIGQNGLGKRTMMLRYLNRHEPSEHSLYDWCYVVNFDDTRSPKVLKLAAGSGLEFKKAIEKLMLKLVKALPLAFDNEMYYARAEKLKSQLAQKQEAALTELSEEAKQKGISLSLTLQGDYQMIALNGEEPHDEYSFTALTETERNQFESNINGLEVKLRNIIRQNTEWEEEFSDTQQEHDEQVAKDVLIHFFKPLKDKYKHQPEVRAFLTGMQADILDNLDIFLEESEEQLALAYASLEKKMPRRYQVNVLVCQGAQKFPIVVEESPSYHSLFGYVENATFRGTVFTDFSLIRSGSLHKANGGVLLMDAVKVLERPYVWDGLKRALRSRKLDLSSLEREVSLSGTISLAPEPIPLDVKIILFGDHETYQLYNTMIQILVNYLELPLILKM	not soluble
MGSDKIHHHHHHMPTLTINQRLDALLPKLQDARLLSNRGIGNEIGFYIFDYDAEYEPLVQRYVDRLKLQLTSSPSGFASPSLSEQQDRAGSPIQLILLEIDLYKTILDILSERGVLKKAFELEATKGNAALAKTVAPLVRPDQVIAYIQKKLRGDEQLVIMTGVGASWPLLRSHSILNNLHPVLDKIPLVMFFPGSYDGHELRLFDTFKDDNYYRAFPLIPHQQHHL	not soluble
MGSDKIHHHHHHMPTNVTAEYLAAEEEYRNAKTIPEKIRALEKMYALVPKHKGTEKLRLQIKRKLAELRKELEKQRQQRKGGGYSLAVKKEGAAQIVLVGLPNVGKSELLKALTGVDVESADYPFTTTEPVPAMLNYKDVQIQLVEVPGLIEGAALGKGMGPQLLAVVRNADAIAIVVDLSEDPVRQMNILLQEFERAGIKVNKKKPKVEIRKTPSGGIVINGIENIKGDIDEVMKMLREEKIHSAEITVMEPVTLEEFADALDDSLVWKKAIIIANKGDAPGSRANYEKLVKAFGERFKIIPVSAKKRINLEAVKEAIYEIADIIRVFTKSPGEEPAYPPIALRKGATVQDVAERIHKDLVKNFKYARVWGKSVKFPGQRVGLDHVLEDGDIVEIHAR	not soluble
MGSDKIHHHHHHMPTPIKIGVSSCLLGEKVRYDGGHKHDRYITDTLGRFFEFVSVCPEAECGMPIPREAMRLEADGGEVRLVTSRSRVDKTEQMLDFCRRKVLELESEDLCGFIFKKDSPSSGLFNVKLYRRGMPTKAGRGLFADAVTKHFPLLPVEEEGRLHDMGLREHFIERVFAFRRWKDLLLGGKSLGRLVAFHADHKLLIMAHSPEVYREMGALVARGKELGCDDLFACYQELFMKALSLHATVRKNTNVLQHIAGYFKKQLTREEKAELQEVIGEYHRHLVPLIVPVTLLRHYVKKYGQEYLLKQVYLSPTPLELMLRNHV	not soluble
MGSDKIHHHHHHMPTTASVLIRDSAPREATSPPFLDIRDVHKRFAGVKALRGVSLAIERGQIYHLLGENGCGKSTLIKIISGAQPPDEGTLVVEGREVAGLSPIMALAAGIETVYQDLSLLPNLSVAENIALSQQLVASGGQLARRLDLARLKATATRALEAVNLPAGDGFLATRVDELPIATRQLIAIARVIATDAKLVIMDEPTTALTKREVDNLIAVVEKLRAKGVAVLFVTHKLDECRTIGGRAIILRDGRKVMEGDIADFTKKDLSHWMTGRALDDSRYREAERGGERLLDVRDLGRANAFGGVSFSLNRGEILGVTGLLDSGRNELALALAGVCPADRGGVSLAGERVVLSQPADAIAAGIGYLPEDRLSEGLFLEKPIADNIIASVLDRLRGRLGMLDRPLSRSRAQEMTDDLQIATPDIANPVQSLSGGNQQRVLIGRWLMIEPRLLVLHGPTVGVDVGSKDTIFRIIQRLAKGGMAVIIISDDLPELLQNCDRILVMRKGRVAEVFDAEGLGEGALYRALVAEESPRSLP	not soluble
MGSDKIHHHHHHMPYTIPNNSCVGCDNCRPQCPTGAIKIEDNEYWVDPGLCNNCEGYYSEPQCVIACPTKSPIPWQAKKGRCKVEPRDSTSLDLFSNGKNNPFASAIAIWEACNVLGQRTSLHWETDEDGYLCYSRQVNQGKGAIAFHIQDPFQVNDKATDIAAIEALDIRAACIHLIFAGYATALEQPWEQEFAIDERQIEKYLGMEKRKDLSKAAKLALMKNLVQQACSLIISIDWPQQGRINGFSVTNSRLWHLVDIQHHFQEDNHGCKYLIGLTFKVKAGLWAQYFLNKQACKERTAFYQYGSLPKTLLTTVMSIWQQHEGAVRLMLWLLFKTKMGKEQRITIPTLLRIAYGEEKVALASRQREERKRLLRTFESDLEILNHYGMKPLFDPVTYPPEIQPLWAKLIDLPEDPDEALEFWTNDGGSETRLTDTGPRGKWNLLMNARILAFELPPEWEQQISESEKKKTRTAKAKKKTKATNDLLGEQILQARKNLNLSQRELAKLTGKSQSWIRDIENGRLKAKLEDQLLLRKVLNMASS	not soluble
MGSDKIHHHHHHMQASFMRMTDKRSPGKPLHPHGVLRPLVFKGRGALSNHDGRFDHLQHADIDDGWHNLDQDLAPLPTEVLIDNSRSIINWNNSPDVPFDRSINPYRGCEHGCIYCFARPTHTYLGLSAGLDFESRILVKPDAARLLRQELSKQHYRCAPIAMGTNTDPYQPLEKQHQLTRQILQVLAEFRHPVSIVTKAAMVERDIDILAPMASQGLVQVFISITTLSNQVSRTLEPRAAAPQRRLDTIRRLHQAGIPTGVMTAPVIPVLTDPELEHILAAASEAGASSAGYVLLRLPLEVAPLFEEWLQHHYPLKASHVMSIIRQSRDGKTNHTDFHARMRGNGLFAEMIRQRFRLACRKLGLNQRSMEMDTSLFRPPGKPEQLGLF	not soluble
MGSDKIHHHHHHMQDSPVVLKVSHVAKSFRLPTEQATGLKMAFLNWTKGIKGYTEQKVLRDIDFEVHRGDFFGVVGRNGSGKSTLLKIISQIYVPDQGSVDVYGKLVPFIELGVGFNPELTGRENVYLNGALLGFSHSEIDAMYDDIVEFAELEEFMDQKLKNYSSGMQVRLAFSVAIKAQGDILVLDEVLAVGDEAFQRKCDAFFKKVQADPNKTVILVTHSMDAVKKYCNKAILIRDGEIVVSGDKNQVADQYTLDNLKGNEPLPEKKKQNGEYAIGLNATVPELKIVPKSDLSTDGKHPFQFDVVYEYKDSGTHYVAVNLLDLKRGGIVYDSGSRTLVQTSSGKHRFALEMPIDMLNSGVYRLYASVRVDDGDSADSETKMVAFTNEANGCVFSINNPDHEDYALLNEKAMIIRKRK	not soluble
MGSDKIHHHHHHMQFVFDIDGTICFDRFQIDARIKAILKDAANYGHQISFASARSYRDCIDVLGQELSQKTVIGLNGGLAYKAGELILEKPMNHRAFDLALYYCHRYQLPYFVDDDFNYAHHLEQFIPFIHSVDPLKLAKEVGVEDLKHPIKMVVFFGNHLDKIAEVSHHLAKLEQLDITFHDDESCLYLNPKEVTKSSTIQELFDHDFVAFGNDRNDIAMFQAAVYSVQVGDFADLSPFADTQVLLRQDYHQAVADKIHETFEKFRA	not soluble
MGSDKIHHHHHHMQIKLSTDGCTDFMFILENTVNHGIIMQPYHSYFVGPMDICSALITLSGTINTFGVRFRPCGLSRFMKISLSELTNIRLSVNDLNTIFSDSFAERLFEEQGIQCKINLIERYLKKHLYKSNHTMDTQISYAVNQINAHEGKISISHLMDEVNLCQRHFERKFKLHTGFTPQKYNSIVKFKNAIKILRNESFDNLLSVAVKAGYYDASHLSREVKKLSGSTPNFFLSLPPDNETTIIYTK	not soluble
MGSDKIHHHHHHMQITLNIEHIRADTPLPPLFRVRQRWQTSPIADVAAVVYAELDKIGLAGHIQPGMRIAVTAGSRGISNIVTITAAAVAWLRAHGAEPFIVPAMGSHGGATAEGQVALLASLGITEQSVGCPIRATMDVVELGRIADGTPVYMDRFAAEADGVLVINRIKTHTSFKAPIESGLAKMCAVGLGKRQGAEIVHRTAVYGLKEQLVPMARMVVERGRVLAGLAILEDARDQTAAIVALPPAEIGGAGEAELLLRSKEMMARLPFDRLDVLVVDRIGKNISGTGMDTNVIGRLPIPGEPPPDRPVINVIVVLDLTPETHGNANGIGLADITTARLAAKIDFHATYVNVLTAGLVGLCKGGLPITLPTERDAVAMAIKTCGQPDLAAVRLVRIPDTLHLEELLVSEALLPEVTAHPNLELLGPAEWVLDCVEG	not soluble
MGSDKIHHHHHHMQKYTSQKLDRLNWDDLRYFLEVARTQRASAAGKRLGVDHTTVARRVRELEAALGVILFDKSRADGFTLTSDGHRLLRHADAVETAVQSASEQFRGATQGLSGHVRIGSTEGFGCFFLSPQIARFTAAHRDVSIDILPVPHFVSLSKREADMAITLERPERGKYVFTRLCDYRLRLYGTRDYFLRHEPVRCIADLRHHAFIDYVADLAFSHELLYLNRTIPDVSSSLCSTSVIAQYFAALQGNALAILPCFMAAPNPMLVSILPDEVVVTRQFWLSSREDLRKLRRITVLWDYLRAATDANRPLLLGDSAELKYVQP	not soluble
MGSDKIHHHHHHMQPEIRKIVTYDEEVLIEGFRKADAPWRMFAIACVVRNPWAGRFVEDLKPEIMAYGPVLGELMTERMITLAGSGDAIEAYGKAAIVGVDGEVEHASGLIHTLRFGNFFREAVGANSYLAFTNTRGPANAPIMVPLMDKNDAGRRSHYLTIQFAIPDAPRADEIVVLLGAATSGRPHHRIGDRYQDLKDLGHDLDNPAAV	not soluble
MGSDKIHHHHHHMQPPLTDKQFKHTIDYDSRLLPYKYYHTCVMDGIPDILFHWHNEFEINYVYGGTARYHIDYDYFNSQAGDIILIRPNAAHSIHPIEQRGHETDTLLFHLDMLGASQLDHTSMLYLQPLQTDVFKCILRIQPQDPGYAEIRQCLLTIFELVRHQPPYFELPLKSRLFDFFYLLYRYRYIVRKNTDDMYRKNEKLRLLIEHIQQHYAENLTIEQLAEQMGYTKTHFMTIFKQQTGTSCMEFIIQVRLRAATELLTNTLKPVLEIATEVGFNNLSNFNRQFKQYYHTTPSSYRKQLRKNRTYTNFDK	not soluble
